B1: Pre-B-cell leukemia transcription factor 4 (Homo sapiens), Q9BYU1 (parent)
chain: MAAPPRPAPSPPAPRRLDTSDVLQQIMAITDQSLDEAQARKHALNCHRMKPALFSVLCEIKEKTVVSIRGIQDEDPPDAQLLRLDNMLLAEGVCRPEKRGRGGAVARAGTATPGGCPNDNSIEHSDYRAKLSQIRQIYHSELEKYEQACREFTTHVTNLLQEQSRMRPVSPKEIERMVGAIHGKFSAIQMQLKQSTCEAVMTLRSRLLDARRKRRNFSKQATEVLNEYFYSHLNNPYPSEEAKEELARKGGLTISQVSNWFGNKRIRYKKNMGKFQEEATIYTGKTAVDTTEVGVPGNHASCLSTPSSGSSGPFPLPSAGDAFLTLRTLASLQPPPGGGCLQSQAQGSWQGATPQPATASPAGDPGSINSSTSN
partner: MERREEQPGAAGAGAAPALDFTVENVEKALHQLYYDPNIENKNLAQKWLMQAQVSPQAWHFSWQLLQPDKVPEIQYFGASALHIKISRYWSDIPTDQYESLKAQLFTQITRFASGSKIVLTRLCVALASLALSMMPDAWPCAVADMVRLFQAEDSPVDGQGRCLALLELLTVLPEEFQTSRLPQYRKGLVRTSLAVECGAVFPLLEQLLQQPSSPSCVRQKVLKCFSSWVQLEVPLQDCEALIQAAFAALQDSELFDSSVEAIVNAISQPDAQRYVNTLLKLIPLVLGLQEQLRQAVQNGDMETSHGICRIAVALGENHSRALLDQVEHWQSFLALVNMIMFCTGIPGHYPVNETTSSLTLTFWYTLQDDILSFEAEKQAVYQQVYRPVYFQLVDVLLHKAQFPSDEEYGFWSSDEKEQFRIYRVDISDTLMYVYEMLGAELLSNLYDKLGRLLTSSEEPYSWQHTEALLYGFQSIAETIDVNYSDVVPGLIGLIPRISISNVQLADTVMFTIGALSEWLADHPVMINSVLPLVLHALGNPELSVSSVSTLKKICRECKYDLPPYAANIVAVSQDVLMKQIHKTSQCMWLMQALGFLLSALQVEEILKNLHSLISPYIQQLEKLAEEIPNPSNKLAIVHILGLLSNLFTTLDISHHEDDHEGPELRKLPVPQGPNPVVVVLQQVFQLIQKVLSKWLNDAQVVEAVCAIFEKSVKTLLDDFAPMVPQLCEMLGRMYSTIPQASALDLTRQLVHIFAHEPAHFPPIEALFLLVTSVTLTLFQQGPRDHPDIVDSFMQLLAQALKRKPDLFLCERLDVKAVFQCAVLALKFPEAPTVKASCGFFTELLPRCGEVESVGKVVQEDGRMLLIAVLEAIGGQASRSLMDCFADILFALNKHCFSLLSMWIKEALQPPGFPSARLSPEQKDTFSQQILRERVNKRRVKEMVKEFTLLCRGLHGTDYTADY
B2: Solute carrier family 35 member C2 (Homo sapiens), Q9NQQ7 (parent)
chain: MGRWALDVAFLWKAVLTLGLVLLYYCFSIGITFYNKWLTKSFHFPLFMTMLHLAVIFLFSALSRALVQCSSHRARVVLSWADYLRRVAPTALATALDVGLSNWSFLYVTVSLYTMTKSSAVLFILIFSLIFKLEELRAALVLVVLLIAGGLFMFTYKSTQFNVEGFALVLGASFIGGIRWTLTQMLLQKAELGLQNPIDTMFHLQPLMFLGLFPLFAVFEGLHLSTSEKIFRFQDTGLLLRVLGSLFLGGILAFGLGFSEFLLVSRTSSLTLSIAGIFKEVCTLLLAAHLLGDQISLLNWLGFALCLSGISLHVALKALHSRGDGGPKALKGLGSSPDLELLLRSSQREEGDNEEEEYFVAQGQQ
B3: Ribosome assembly protein METTL17, mitochondrial (Homo sapiens), Q9H7H0 (parent)
chain: MAAALKCLLTLGRWCPGLGVAPQARALAALVPGVTQVDNKSGFLQKRPHRQHPGILKLPHVRLPQALANGAQLLLLGSAGPTMENQVQTLTSYLWSRHLPVEPEELQRRARHLEKKFLENPDLSQTEEKLRGAVLHALRKTTYHWQELSYTEGLSLVYMAARLDGGFAAVSRAFHEIRARNPAFQPQTLMDFGSGTGSVTWAAHSIWGQSLREYMCVDRSAAMLVLAEKLLKGGSESGEPYIPGVFFRQFLPVSPKVQFDVVVSAFSLSELPSKADRTEVVQTLWRKTGHFLVLVENGTKAGHSLLMDARDLVLKGKEKSPLDPRPGFVFAPCPHELPCPQLTNLACSFSQAYHPIPFSWNKKPKEEKFSMVILARGSPEEAHRWPRITQPVLKRPRHVHCHLCCPDGHMQHAVLTARRHGRDLYRCARVSSWGDLLPVLTPSAFPPSTAQDPSES
partner: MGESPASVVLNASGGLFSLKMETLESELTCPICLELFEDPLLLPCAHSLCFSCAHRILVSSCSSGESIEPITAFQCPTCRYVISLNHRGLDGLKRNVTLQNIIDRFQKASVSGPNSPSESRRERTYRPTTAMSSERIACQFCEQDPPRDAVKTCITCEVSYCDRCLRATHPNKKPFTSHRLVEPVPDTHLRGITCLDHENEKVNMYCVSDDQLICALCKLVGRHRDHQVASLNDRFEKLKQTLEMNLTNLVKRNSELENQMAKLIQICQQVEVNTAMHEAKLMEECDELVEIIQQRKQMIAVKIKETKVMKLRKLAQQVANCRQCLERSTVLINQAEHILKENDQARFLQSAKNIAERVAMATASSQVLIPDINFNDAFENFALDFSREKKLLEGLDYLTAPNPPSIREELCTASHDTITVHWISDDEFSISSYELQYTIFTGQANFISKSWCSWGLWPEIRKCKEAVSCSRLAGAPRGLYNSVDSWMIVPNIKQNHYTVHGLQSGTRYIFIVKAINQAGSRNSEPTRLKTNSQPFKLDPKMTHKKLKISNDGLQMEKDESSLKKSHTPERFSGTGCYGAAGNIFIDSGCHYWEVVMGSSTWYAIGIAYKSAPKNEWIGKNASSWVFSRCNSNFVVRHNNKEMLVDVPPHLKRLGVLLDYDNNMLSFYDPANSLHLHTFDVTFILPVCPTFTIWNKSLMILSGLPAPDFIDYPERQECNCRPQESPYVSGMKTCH
B4: Cysteine/serine-rich nuclear protein 2 (Homo sapiens), Q9H175 (parent)
chain: MDAFTGSGLKRKFDDVDVGSSVSNSDDEISSSDSADSCDSLNPPTTASFTPTSILKRQKQLRRKNVRFDQVTVYYFARRQGFTSVPSQGGSSLGMAQRHNSVRSYTLCEFAQEQEVNHREILREHLKEEKLHAKKMKLTKNGTVESVEADGLTLDDVSDEDIDVENVEVDDYFFLQPLPTKRRRALLRASGVHRIDAEEKQELRAIRLSREECGCDCRLYCDPEACACSQAGIKCQVDRMSFPCGCSRDGCGNMAGRIEFNPIRVRTHYLHTIMKLELESKRQVSRPAAPDEEPSPTASCSLTGAQGSETQDFQEFIAENETAVMHLQSAEELERLKAEEDSSGSSASLDSSIESLGVCILEEPLAVPEELCPGLTAPILIQAQLPPGSSVLCFTENSDHPTASTVNSPSYLNSGPLVYYQVEQRPVLGVKGEPGTEEGSASFPKEKDLNVFSLPVTSLVACSSTDPAALCKSEVGKTPTLEALLPEDCNPEEPENEDFHPSWSPSSLPFRTDNEEGCGMVKTSQQNEDRPPEDSSLELPLAV
B5: Keratin, type I cuticular Ha8 (Homo sapiens), O76015 (parent)
chain: MTSSYSSSSCPLGCTMAPGARNVSVSPIDIGCQPGAEANIAPMCLLANVAHANRVRVGSTPLGRPSLCLPPTCHTACPLPGTCHIPGNIGICGAYGENTLNGHEKETMQFLNDRLANYLEKVRQLEQENAELEATLLERSKCHESTVCPDYQSYFHTIEELQQKILCSKAENARLIVQIDNAKLAADDFRIKLESERSLRQLVEADKCGTQKLLDDATLAKADLEAQQESLKEEQLSLKSNHEQEVKILRSQLGEKLRIELDIEPTIDLNRVLGEMRAQYEAMLETNRQDVEQWFQAQSEGISLQDMSCSEELQCCQSEILELRCTVNALEVERQAQHTLKDCLQNSLCEAEDRFGTELAQMQSLISNVEEQLSEIRADLERQNQEYQVLLDVKTRLENEIATYRNLLESEDCKLPCNPCSTSPSCVTAPCAPRPSCGPCTTCGPTCGASTTGSRF
partner: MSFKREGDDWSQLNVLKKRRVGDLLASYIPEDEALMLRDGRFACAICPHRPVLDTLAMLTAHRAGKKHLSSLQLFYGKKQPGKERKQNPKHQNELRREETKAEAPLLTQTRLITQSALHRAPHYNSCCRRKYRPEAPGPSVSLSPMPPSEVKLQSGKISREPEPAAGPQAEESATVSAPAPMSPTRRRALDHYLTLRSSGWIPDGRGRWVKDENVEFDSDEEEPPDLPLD

Variants of: B1
Conditions: with ipo13_human IPO13, O94829

| effect of a mutation on the interaction | Variant |
| --- | --- |
| disrupting interaction strength | A247T |

Variants of: B2
Conditions: with creb3_human CREB3, O43889
creb3_human CREB3, O43889, sequence (O43889 whole entry): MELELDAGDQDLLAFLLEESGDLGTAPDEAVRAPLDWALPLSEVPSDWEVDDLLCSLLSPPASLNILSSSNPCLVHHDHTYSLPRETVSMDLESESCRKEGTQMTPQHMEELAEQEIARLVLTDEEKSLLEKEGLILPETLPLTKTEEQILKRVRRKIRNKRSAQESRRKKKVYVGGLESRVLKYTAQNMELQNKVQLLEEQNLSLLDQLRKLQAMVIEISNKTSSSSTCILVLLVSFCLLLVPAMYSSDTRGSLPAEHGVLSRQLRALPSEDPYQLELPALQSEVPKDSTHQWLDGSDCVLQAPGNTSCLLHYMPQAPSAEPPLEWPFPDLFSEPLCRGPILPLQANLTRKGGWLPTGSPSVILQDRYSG

| effect of a mutation on the interaction | Variant |
| --- | --- |
| with no effect | G176S |

Variants of: B3
Conditions: with trim1_human MID2, Q9UJV3

| effect of a mutation on the interaction | Variant |
| --- | --- |
| disrupting interaction strength | R212H |

Variants of: B4
Conditions: with pp1g_human PPP1CC

| effect of a mutation on the interaction | Variant |
| --- | --- |
| with no effect | Q382E |

Variants of: B5
Conditions: with scnm1_human SCNM1, Q9BWG6

| effect of a mutation on the interaction | Variant |
| --- | --- |
| with no effect | D306A |

Variants of: B5
Conditions: with scnm1_human SCNM1, Q9BWG6
Remark: another data set of the same source

| effect of a mutation on the interaction | Variant |
| --- | --- |
| with no effect | N270K |

Reference: IntAct's records for PubMed 29892012
